Changes are numbered by the printed parent chain. Names may count otherwise.
What was measured:
[1] = target: N-terminally truncated HPV-11 E1 (E1*, amino acids 72-649) (human papilloma virus type 11 (HPV-11)) (UniProt P04014); experiment: cell-based or functional assay
[2] = target: the molecule itself; experiment: BMH cross-linking of 35S-labelled protein, immunoprecipitation, gel electrophoresis (FIG. 10)
[3] = target: the molecule itself; experiment: BMH cross-linking of in-vitro translated truncated proteins (FIG. 11)
[4] = target: the molecule itself; experiment: BMH cross-linking with ss DNA (FIG. 12B)
[5] = target: T1, HPV-11 E1 (330-649) fused to the GAL4 DNA-binding domain (BD) (human papilloma virus type 11 (HPV-11)); experiment: yeast two-hybrid, β-galactosidase activity (FIG. 1B)
T1 construct: also called larger E1 fragment (330-649)

“thioredoxin fusion protein TRX-E1 (353-431) (from UniProt P04014 353-431)” showed a 50% inhibitory concentration for inhibition of the binding of E1* (72-649) to the origin [1] of 3 µM.

B1: N-terminally truncated HPV-11 E1 (E1*, amino acids 72-649) (enzyme)
chain: ADAHYATVQDLKRKYLGSPYVSPISNVANAVESEISPRLDAIKLTTQPKKVKRRLFETRELTDSGYGYSEVEAATQVEKHGDPENGGDGEERDTGRDIEGEGVEHREAEAVDDSTREHADTSGILELLKCKDIRSTLHGKFKDCFGLSFVDLIRPFKSDRTTCADWVVAGFGIHHSIADAFQKLIEPLSLYAHIQWLTNAWGMVLLVLIRFKVNKSRCTVARTLGTLLNIPENHMLIEPPKIQSGVAALYWFRTGISNASTVIGEAPEWITRQTVIEHSLADSQFKLTEMVQWAYDNDICEESEIAFEYAQRGDFDSNARAFLNSNMQAKYVKDCAIMCRHYKHAEMKKMSIKQWIKYRGTKVDSVGNWKPIVQFLRHQNIEFIPFLSKLKLWLHGTPKKNCIAIVGPPDTGKSCFCMSLIKFLGGTVISYVNSCSHFWLQPLTDAKVALLDDATQPCWTYMDTYMRNLLDGNPMSIDRKHRALTLIKCPPLLVTSNIDISKEEKYKYLHSRVTTFTFPNPFPFDRNGNAVYELSDANWKCFFERLSSSLDIEDSEDEEDGSNSQAFRCVPGSVVRTL
notes: Made by coupled in vitro transcription/translation in rabbit reticulocyte lysate; 35S-labelled in the cross-linking assay; Forms up to hexamers; also called E1 (72-649); E1* (72-649)
B1: binds [2].

B2: truncated HPV-11 E1 (353-649) made by in-vitro translation (enzyme)
chain: DSQFKLTEMVQWAYDNDICEESEIAFEYAQRGDFDSNARAFLNSNMQAKYVKDCAIMCRHYKHAEMKKMSIKQWIKYRGTKVDSVGNWKPIVQFLRHQNIEFIPFLSKLKLWLHGTPKKNCIAIVGPPDTGKSCFCMSLIKFLGGTVISYVNSCSHFWLQPLTDAKVALLDDATQPCWTYMDTYMRNLLDGNPMSIDRKHRALTLIKCPPLLVTSNIDISKEEKYKYLHSRVTTFTFPNPFPFDRNGNAVYELSDANWKCFFERLSSSLDIEDSEDEEDGSNSQAFRCVPGSVVRTL
notes: also called residues 353-649 of E1
B2: binds [3].

B3: truncated HPV-11 E1 (330-649) made by in-vitro translation (enzyme)
chain: ASTVIGEAPEWITRQTVIEHSLADSQFKLTEMVQWAYDNDICEESEIAFEYAQRGDFDSNARAFLNSNMQAKYVKDCAIMCRHYKHAEMKKMSIKQWIKYRGTKVDSVGNWKPIVQFLRHQNIEFIPFLSKLKLWLHGTPKKNCIAIVGPPDTGKSCFCMSLIKFLGGTVISYVNSCSHFWLQPLTDAKVALLDDATQPCWTYMDTYMRNLLDGNPMSIDRKHRALTLIKCPPLLVTSNIDISKEEKYKYLHSRVTTFTFPNPFPFDRNGNAVYELSDANWKCFFERLSSSLDIEDSEDEEDGSNSQAFRCVPGSVVRTL
B3: binds [3].

B4: truncated HPV-11 E1 (191-649) made by in-vitro translation (enzyme)
chain: DTSGILELLKCKDIRSTLHGKFKDCFGLSFVDLIRPFKSDRTTCADWVVAGFGIHHSIADAFQKLIEPLSLYAHIQWLTNAWGMVLLVLIRFKVNKSRCTVARTLGTLLNIPENHMLIEPPKIQSGVAALYWFRTGISNASTVIGEAPEWITRQTVIEHSLADSQFKLTEMVQWAYDNDICEESEIAFEYAQRGDFDSNARAFLNSNMQAKYVKDCAIMCRHYKHAEMKKMSIKQWIKYRGTKVDSVGNWKPIVQFLRHQNIEFIPFLSKLKLWLHGTPKKNCIAIVGPPDTGKSCFCMSLIKFLGGTVISYVNSCSHFWLQPLTDAKVALLDDATQPCWTYMDTYMRNLLDGNPMSIDRKHRALTLIKCPPLLVTSNIDISKEEKYKYLHSRVTTFTFPNPFPFDRNGNAVYELSDANWKCFFERLSSSLDIEDSEDEEDGSNSQAFRCVPGSVVRTL
notes: also called E1 protein comprised of amino acids 191-649
B4: binds [3].

B5: E1* (72-649) F509A (enzyme)
chain: B1 chain with F438A
B5: binds [4].

B6: C-terminal HPV-11 E1 fragment (amino acids 435-649) fused to the GAL4 activation domain (AD) (other)
chain: DSVGNWKPIVQFLRHQNIEFIPFLSKLKLWLHGTPKKNCIAIVGPPDTGKSCFCMSLIKFLGGTVISYVNSCSHFWLQPLTDAKVALLDDATQPCWTYMDTYMRNLLDGNPMSIDRKHRALTLIKCPPLLVTSNIDISKEEKYKYLHSRVTTFTFPNPFPFDRNGNAVYELSDANWKCFFERLSSSLDIEDSEDEEDGSNSQAFRCVPGSVVRTL
notes: also called E1 (435-649)
B6: no binding [5].

From US20040002059A1 (Boehringer Ingelheim, published 2004)
